Values quoted from earlier work as cited in paper PMC11548882.

Target: EGFR (Homo sapiens) (UniProt P00533)

Kd: 4 nM
Substance: EGF (from UniProt P01133)
